Source: patent publication US20240368668A1, “SUBSTRATES AND BIOMARKERS OF ADAMTS7” (The Broad Institute, Inc., priority 2021, published 2024)
Square brackets hold non-standard residues; d marks the D form. Ends that are not written are not given here. deamidated = deamidated asparagine; Met(O) = CS(=O)CC[C@H](N)C(=O)O

Target: T1, mouse ADAMTS7 (Mus musculus, UniProt Q68SA9, E373Q)
T1 construct: Full-length mouse Adamts7 1-1857 (Uniprot Q68SA9, WT or E373Q catalytic mutant); expressed in transfected cells; host or cells: Human Coronary Artery Smooth Muscle Cells (HCA-SMC, Lonza), adenovirus 50 MOI
T1 sequence (Q68SA9 221-1657 E373Q): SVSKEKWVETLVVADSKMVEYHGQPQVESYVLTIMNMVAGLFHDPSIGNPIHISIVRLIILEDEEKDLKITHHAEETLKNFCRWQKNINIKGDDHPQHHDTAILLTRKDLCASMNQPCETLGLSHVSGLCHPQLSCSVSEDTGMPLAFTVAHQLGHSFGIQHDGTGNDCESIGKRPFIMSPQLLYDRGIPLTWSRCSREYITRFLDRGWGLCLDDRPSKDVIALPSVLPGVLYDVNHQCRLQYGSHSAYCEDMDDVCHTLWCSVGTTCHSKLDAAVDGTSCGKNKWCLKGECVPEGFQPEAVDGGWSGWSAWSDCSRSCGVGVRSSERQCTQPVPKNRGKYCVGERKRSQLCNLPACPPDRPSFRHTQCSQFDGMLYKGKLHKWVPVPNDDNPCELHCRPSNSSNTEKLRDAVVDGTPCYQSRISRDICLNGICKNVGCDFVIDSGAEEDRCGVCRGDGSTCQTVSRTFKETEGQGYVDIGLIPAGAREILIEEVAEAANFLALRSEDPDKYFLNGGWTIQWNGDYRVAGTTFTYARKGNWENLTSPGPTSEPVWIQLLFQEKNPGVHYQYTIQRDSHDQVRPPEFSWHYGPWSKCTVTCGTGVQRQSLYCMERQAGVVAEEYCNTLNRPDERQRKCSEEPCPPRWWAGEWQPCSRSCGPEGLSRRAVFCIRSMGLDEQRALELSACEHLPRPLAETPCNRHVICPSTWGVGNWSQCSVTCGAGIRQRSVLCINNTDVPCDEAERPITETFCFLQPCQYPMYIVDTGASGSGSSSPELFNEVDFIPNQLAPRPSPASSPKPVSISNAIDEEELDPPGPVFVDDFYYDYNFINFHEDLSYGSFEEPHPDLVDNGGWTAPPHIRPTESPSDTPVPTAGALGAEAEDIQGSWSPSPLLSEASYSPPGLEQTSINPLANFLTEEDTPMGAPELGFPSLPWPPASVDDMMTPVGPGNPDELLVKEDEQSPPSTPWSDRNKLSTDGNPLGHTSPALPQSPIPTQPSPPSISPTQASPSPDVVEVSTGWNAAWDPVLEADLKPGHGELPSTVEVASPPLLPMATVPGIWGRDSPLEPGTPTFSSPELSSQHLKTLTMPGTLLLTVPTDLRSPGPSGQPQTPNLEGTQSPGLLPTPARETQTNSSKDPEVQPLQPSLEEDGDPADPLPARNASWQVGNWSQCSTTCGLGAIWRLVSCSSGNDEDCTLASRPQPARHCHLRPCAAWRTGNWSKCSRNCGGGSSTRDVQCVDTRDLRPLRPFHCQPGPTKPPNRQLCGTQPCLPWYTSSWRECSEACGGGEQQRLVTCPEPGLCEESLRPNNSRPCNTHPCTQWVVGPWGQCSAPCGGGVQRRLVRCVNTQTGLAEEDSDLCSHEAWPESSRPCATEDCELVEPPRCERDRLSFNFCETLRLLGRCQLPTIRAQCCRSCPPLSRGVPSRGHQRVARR
Test: TMT10 TAILS N-terminomics, SMC1 experiment (Ad-mADAMTS7 WT vs EQ vs Luc, technical replicates, trypsin digest)
Assay type: cell-based
Conditions: TAILS neo-N-terminal peptide abundance; log fold change, Ad-mADAMTS7 EQ over Luc
Procedure, shortened: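 Full-length mouse ADAMTS7 (WT or E373Q mutant, C-terminal 3xFLAG) or luciferase was transduced via adenovirus, 50 MOI, into HCA-SMC (SMC1, SMC2) or HUVEC. SMC1: pooled media, technical triplicates 400 ug; SMC2: process triplicates 300 ug; HUVEC: process triplicates 200 ug, bFGF2 10 ng/ml.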

Row | Substance | logFC.mEQ.over.Luc
1 | CDC37_43 (FQKEKEELDR; listed as Homo sapiens) | −0.12
2 | CDH11_467 (HQEAKVPVAIR; listed as Homo sapiens) | −0.03
3 | CLEC11A_50 (HLQEALGLPAGR; listed as Homo sapiens) | −0.34
4 | COL1A2_80 (QYDGKGVGLGPGPMGLMGPR; listed as Homo sapiens) | 0.19
5 | COL1A2_91 (GPMGLMGPR; listed as Homo sapiens) | −0.07
6 | COL1A2_113 (FQGPAGEPGEPGQTGPAGAR; listed as Homo sapiens) | −0.61
7 | COL1A2_270 (VGNAGPAGPAGPR; listed as Homo sapiens) | 0.70
8 | COL1A2_305 (LTGAKGAAGLPGVAGAPGLPGPR; listed as Homo sapiens) | −0.16
9 | COL1A2_389 (SAGPPGPPGLR; listed as Homo sapiens) | 0.39
10 | COL1A2_425 (ASGPAGVR; listed as Homo sapiens) | −0.17
11 | COL1A2_630 (VGTAGPSGPSGLPGER; listed as Homo sapiens) | −0.27
12 | COL1A2_681 (VGAPGPAGATGDR; listed as Homo sapiens) | −0.34
13 | COL1A2_731 (AAGQPGAKGER; listed as Homo sapiens) | −0.18
14 | COL1A2_866 (LLGAPGILGLPGSR; listed as Homo sapiens) | −0.24
15 | COL1A2_960 (AGAPGPHGPVGPAGKHGNR; listed as Homo sapiens) | −0.35
16 | COL1A2_1028 (LQGLPGIAGHHGDQGAPGSVGPAGPR; listed as Homo sapiens) | −0.28
17 | COL1A2_1037 (HHGDQGAPGSVGPAGPR; listed as Homo sapiens) | −0.79
18 | COL1A2_1127 (SLRPKDYEVDATLKSLNNQIETLLTPEGSR; listed as Homo sapiens) | −0.45
19 | COL4A2_71 (YNGPPGLQGFPGLQGR; listed as Homo sapiens) | −0.37
20 | COL4A2_172 (YALPKEER; listed as Homo sapiens) | 0.76
21 | COL5A1_544 (SQAQAILQQAR; listed as Homo sapiens) | −0.21
22 | COL8A1_90 (MKEIQPAPR; listed as Homo sapiens) | −0.25
23 | COL18A1_1505 (LQPPVVQLHDSNPYPR; listed as Homo sapiens) | −0.01
24 | ECM1_43 (YAAPPSPPLSR; listed as Homo sapiens) | −0.04
25 | LTBP2_1602 (EAGVHFR; listed as Homo sapiens) | 0.64
26 | MAN2A1_51 (LQEKIDHLER; listed as Homo sapiens) | 0.18

Row | Substance | logFC.mEQ.over.Luc
27 | MAP1B_1065 (LTTPTKQLGAQSPGR; listed as Homo sapiens) | −0.20
28 | MAP4_815 (AVASTGPSSR; listed as Homo sapiens) | 0.10
29 | MAP4_816 (VASTGPSSR; listed as Homo sapiens) | −0.18
30 | MGAT4B_28 (LSGQKGDVVDVYQR; listed as Homo sapiens) | −0.23
31 | MMP1_24 (LETQEQDVDLVQKYLEKYYNLKN(deamidated)DGR; listed as Homo sapiens) | −0.08
32 | NID2_291 (HSSVPLGR; listed as Homo sapiens) | −0.08
33 | NID2_374 (VGGPDLKGQVEPWDER; listed as Homo sapiens) | −0.14
34 | NID2_467 (LEDNIGSNTEVFTYNAANKETCEHNHR; listed as Homo sapiens) | −0.09
35 | NID2_951 (YAYPGAR; listed as Homo sapiens) | −0.58
36 | NUCB1_228 (LKEVWEELDGLDPNR; listed as Homo sapiens) | 0.07
37 | NUCB1_317 (FLASTQR; listed as Homo sapiens) | −0.11
38 | NUCB1_389 (LQQAVLHMEQR; listed as Homo sapiens) | 0.15
39 | OS9_54 ([code q]SQSSDVVIVSSKYKQR; also: modified N-terminal Gln; listed as Homo sapiens) | −0.14
40 | OS9_55 (SQSSDVVIVSSKYKQR; listed as Homo sapiens) | −0.06
41 | PAPPA_41 (AAGPATCATR; listed as Homo sapiens) | 0.35
42 | PDLIM4_104 (IDPEIQDGSPTTSR; listed as Homo sapiens) | −0.13
43 | POLR3G_88 (LFCSHWSHIPGFK; listed as Homo sapiens) | 0.00
44 | POSTN_413 (FSDDTLSMDQR; listed as Homo sapiens) | −0.02
45 | POSTN_754 (IITGPEIKYTR; listed as Homo sapiens) | 0.10
46 | POSTN_790 (FIEGGDGHLFEDEEIKR; listed as Homo sapiens) | −0.31
47 | POSTN_807 (LLQGDTPVR; listed as Homo sapiens) | −0.07
48 | PPP1R18_295 (LSETLTR; listed as Homo sapiens) | −0.08
49 | PSAP_171 (F[Met(O)]ANIPLLLYPQDGPR; listed as Homo sapiens) | 0.10
50 | PXDN_1341 (SYQEDKPTKKTR; listed as Homo sapiens) | 1.36
51 | PXDN_1393 (QKTITDLR; listed as Homo sapiens) | 0.10
